Experiment [1] addresses HER2-Fc (#1129-ER, R&D Systems) (UniProt P04626). Nature of the experiment: SPR, Biacore T100; antibody captured by human Fab binder on CM5 chip, HER2-Fc injected. A general note: In SPR one partner is held on a chip, and binding of the other changes the refractive index at the surface.
For experiment [2], the target named is c-Met-Fc (#358-MT/CF, R&D Systems) (UniProt P08581). Nature of the experiment: SPR, Biacore T100; antibody captured by human Fab binder on CM5 chip, c-Met-Fc injected.
Chain of UniProt P08581 (P08581 25-932 limits assumed): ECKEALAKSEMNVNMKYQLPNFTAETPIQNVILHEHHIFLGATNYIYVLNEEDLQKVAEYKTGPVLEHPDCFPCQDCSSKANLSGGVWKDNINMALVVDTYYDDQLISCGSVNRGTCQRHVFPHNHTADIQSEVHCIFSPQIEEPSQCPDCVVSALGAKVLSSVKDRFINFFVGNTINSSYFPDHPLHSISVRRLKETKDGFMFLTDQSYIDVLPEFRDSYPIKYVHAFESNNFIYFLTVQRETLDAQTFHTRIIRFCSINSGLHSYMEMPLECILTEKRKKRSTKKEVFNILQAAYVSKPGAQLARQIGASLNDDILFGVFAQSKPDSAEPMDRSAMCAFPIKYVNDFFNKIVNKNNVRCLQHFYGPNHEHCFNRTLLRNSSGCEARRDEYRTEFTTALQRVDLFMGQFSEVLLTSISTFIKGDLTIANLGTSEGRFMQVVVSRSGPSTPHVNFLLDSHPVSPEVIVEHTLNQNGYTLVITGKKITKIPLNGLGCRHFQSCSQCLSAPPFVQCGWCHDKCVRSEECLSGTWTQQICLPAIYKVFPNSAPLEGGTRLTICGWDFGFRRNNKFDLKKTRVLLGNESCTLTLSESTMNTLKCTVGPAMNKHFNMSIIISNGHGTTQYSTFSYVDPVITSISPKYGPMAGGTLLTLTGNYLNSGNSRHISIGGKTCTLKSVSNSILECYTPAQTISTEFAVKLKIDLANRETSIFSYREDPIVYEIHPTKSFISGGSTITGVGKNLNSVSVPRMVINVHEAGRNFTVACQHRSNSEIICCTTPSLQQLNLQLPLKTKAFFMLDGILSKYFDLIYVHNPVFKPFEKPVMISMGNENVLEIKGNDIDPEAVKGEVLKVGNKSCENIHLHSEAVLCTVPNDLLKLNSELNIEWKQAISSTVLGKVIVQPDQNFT

Data on two molecules can be found in patent US20150322162A1.

Substitutions are numbered along the chain they refer to. Some results are limits rather than exact numbers.

B1: MH2-12 anti-c-Met/anti-HER2 bispecific antibody (bispecific antibody, part only; not given: nothing needed for binding, IgG2, not shown: another chain or arm of the molecule; small tags and cut ends)
heavy: EVQLVESGGGLVQPGGSLRLSCAASGFTFTDYYMSWVRQAPGKGLEWLGFIRNKANGYTTEYSASVKGRFTISRDNSKNTLYLQMNSLRAEDTAVYYCARDNWFAYWGQGTLVTVSSASTKGPSVFPLAPCSRSTSESTAALGCLVKDYFPEPVTVSWNSGALTSGVHTFPAVLQSSGLYSLSSVVTVPSSNFGTQTYTCNVDHKPSNTKVDKTVERKCCVECPPCPAPPVAGPSVFLFPPKPKDTLMISRTPEVTCVVVDVSHEDPEVQFNWYVDGVEVHNAKTKPREEQFNSTFRVVSVLTVVHQDWLNGKEYKCKVSNKGLPAPIEKTISKTKGQPREPQVYTLPPSREEMTKNQVSLTCLVKGFYPSDIAVEWESNGQPENNYKTTPPMLDSDGSFFLYSKLTVDKSRWQQGNVFSCSVMHEALHNHYTQKSLSLSPGKGGGGSGGGGSEVQLVQSGAEVKKPGESLKISCKGSGYSFTSYWIGWVRQMPGKGLEWMGIIYPGDSDTRYSPSFQGQVTISADKSISTAYLQWSSLKASDTAMYYCARHYYDSSGYSYFPDYWGQGTLVTVSS
VL: QTVVTQEPSFSVSPGGTVTLTCGLSSGSVSTSYYPSWYQQTPGQAPRTLIYSTNTRSSGVPDRFSGSILGNKAALTITGAQADDESDYYCVLYMGSGIWVFGGGTKLTVL
light: DIQMTQSPSSLSASVGDRVTITCKSSQSLLASGNQNNYLAWYQQKPGKAPKMLIIWASTRVSGVPSRFSGSGSGTDFTLTISSLQPEDFATYYCQQSYSRPYTFGQGTKVEIKRTVAAPSVFIFPPSDEQLKSGTASVVCLLNNFYPREAKVQWKVDNALQSGNSQESVTEQDSKDSTYSLSSTLTLSKADYEKHKVYACEVTHQGLSSPVTKSFNRGEC
Turning to B1, in experiment [1], the dissociation constant (Kd) (as a rule, the free concentration of one partner at which half of the binding sites on the other are occupied at equilibrium, for simple one-to-one binding) was under 0.01 nM; the koff (usually the rate constant with which the complex falls apart) was under 5.8e-05 s⁻¹; the association rate constant (kon) (in general, the rate constant with which the complex forms) was found to be 200000 M⁻¹ s⁻¹. In experiment [2], this molecule registered an equilibrium dissociation constant (Kd) of 0.04 nM, an off-rate constant (koff) of 1.9e-05 s⁻¹ and an on-rate constant (kon) of 500000 M⁻¹ s⁻¹.

B2: MH2-18 anti-c-Met/anti-HER2 bispecific antibody (bispecific antibody, part only; not given: nothing needed for binding, IgG2, not shown: another chain or arm of the molecule; small tags and cut ends)
heavy: EVQLVESGGGLVQPGGSLRLSCAASGFTFTDYYMSWVRQAPGKGLEWLGFIRNKANGYTTEYSASVKGRFTISRDNSKNTLYLQMNSLRAEDTAVYYCARDNWFAYWGQGTLVTVSSASTKGPSVFPLAPCSRSTSESTAALGCLVKDYFPEPVTVSWNSGALTSGVHTFPAVLQSSGLYSLSSVVTVPSSNFGTQTYTCNVDHKPSNTKVDKTVERKCCVECPPCPAPPVAGPSVFLFPPKPKDTLMISRTPEVTCVVVDVSHEDPEVQFNWYVDGVEVHNAKTKPREEQFNSTFRVVSVLTVVHQDWLNGKEYKCKVSNKGLPAPIEKTISKTKGQPREPQVYTLPPSREEMTKNQVSLTCLVKGFYPSDIAVEWESNGQPENNYKTTPPMLDSDGSFFLYSKLTVDKSRWQQGNVFSCSVMHEALHNHYTQKSLSLSPGKGGGGSGGGGSEVQLVQSGAEVKKPGESLKISCKGSGYSFTSYWIGWVRQMPGKGLEWMGIIYPGDSDTRYSPSFQGQVTISADKSISTAYLQWSSLKASDTAMYYCARLVVGANPPTYYFDYWGQGTLVTVSS
VL: B1 VL with T2A, A82T, W99S, V100L, L107V
light: B1 light
As to B2, in experiment [1], the equilibrium dissociation constant (Kd) is under 0.01 nM, the off-rate (koff) was under 1.3e-05 s⁻¹ and the kon was determined as 820000 M⁻¹ s⁻¹. In experiment [2], this molecule gave a dissociation constant (Kd) of 0.03 nM, an off-rate constant (koff) of 1.5e-05 s⁻¹ and an on-rate (kon) of 590000 M⁻¹ s⁻¹.
